According to patent US20160009821A1 (TDW GROUP, published 2016):

Molecular target: T1, Human argininosuccinate synthase (endogenous, in human tissues and human cancer cell lines) (human, UniProt P00966 1-412)
T1 construct: Endogenous protein in formalin-fixed, paraffin-embedded human tissue and cell line sections, with cytoplasmic staining; also called ASS; ASS1
T1 sequence: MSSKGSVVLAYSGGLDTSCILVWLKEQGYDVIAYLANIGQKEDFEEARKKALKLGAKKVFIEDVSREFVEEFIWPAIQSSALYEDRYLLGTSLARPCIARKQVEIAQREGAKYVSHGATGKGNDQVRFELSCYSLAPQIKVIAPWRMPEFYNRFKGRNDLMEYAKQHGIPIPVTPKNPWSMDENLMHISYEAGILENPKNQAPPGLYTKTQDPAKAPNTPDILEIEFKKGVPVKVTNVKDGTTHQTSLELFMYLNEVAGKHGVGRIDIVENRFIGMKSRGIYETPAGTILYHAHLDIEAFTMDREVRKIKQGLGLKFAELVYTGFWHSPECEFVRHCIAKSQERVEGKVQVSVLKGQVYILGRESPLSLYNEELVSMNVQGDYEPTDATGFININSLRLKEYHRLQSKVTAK
Experiment: immunohistochemistry on formalin-fixed, paraffin-embedded clinical samples
Method: Formalin-fixed, paraffin-embedded specimens were sectioned at 4-5 μm and mounted on positively charged slides. Slides were air dried and then placed in a 60° C. oven for 60 minutes. Slides were stained using the Leica Bond III instrument. Paraffin was removed from the slides using the standard Leica Bond dewax protocol. The tissue was antigen retrieved with either Bond ER1 for 5 or Bond ER2 for 20 minutes.
Mouse anti-argininosuccinate synthase monoclonal antibody was applied to the slide at a concentration of 0.625 μg/mL and incubated for 15 min or 0.4 μg/mL and incubated for 30 minutes. The Leica Bond Polymer Refine Detection kit was used to visualize the staining—post primary for 8 minutes and polymer for 8 minutes. The slides were then treated with Peroxide Block for five minutes followed by Mixed DAB Refine for ten minutes. Stained sections were counterstained with hematoxylin for […] The slides were then dehydrated and cover-slipped.

B1: Mouse anti-argininosuccinate synthase monoclonal antibody used for immunohistochemistry in Example 2 (antibody, V domains shown)
VH: QIQLVQSGPELKKPGETVKISCKTSGYTFTDYSIHWVKQAPGKGLTWMGWINTETGEPTYADDFKGRFALSLETSASTAYLQLKNLRNEDTATYFCGSSYSYWGQGTLVTVSS
VL: DVVMTQTPLSLPVSLGDQASISCRSSQSLENSNGKTYLNWFLQKPGQSPQLLIYRVSNRFSGVPDRFSGSGSGTEFTLKISRVEAEDLGVYFCLQVKHVPWTFGGGTKLEIK
- binding result: binds
